According to patent US20160178646A1, “METHODS FOR DETECTING AMYLOID BETA AMYLOIDOSIS” (Washington University, priority 2011, published 2016):

Assay: Aβ SILK tracer kinetics in CSF with compartmental model of Aβ turnover
Assay type: in vivo, human
Details: for FTR faster: cognitively normal, amyloid positive group compared to cognitively normal, amyloid negative group; for FTR, Mean(95% confidence limits) / kex42 (Aβ42 exchange rate), Mean(95% confidence limits): multivariate ANOVA; for FTR (fractional turnover rate): mean ± StDev
From the text: These human studies took place at the Washington University School of Medicine in St. Louis and were approved by the Washington University Human Studies Committee and the General Clinical Research Center (GCRC) Advisory Committee. All participants completed informed written consent. One hundred and one participants were enrolled for these studies comprising 57 men (aged from 60.4 to 87.7) and 44 women (aged 63.8 to 85.2). Deposition of amyloid plaques was quantified in 62 subjects based on the mean cortical binding potential (MCBP) score of [^11C]PIB-PET.^15 PET PIB scans were performed within 3 years before or after the SILK tracer study date. Cognitive status using the Clinical Dementia Rating sum of boxes score (CDR-SB16) and ApoE genotyping^33 was assessed in all subjects.
The procedure for stable isotope amino acid tracer administration and sample collection was previously described.^12 Briefly, intravenous and intrathecal lumbar catheters were placed between 7:00 AM and 9:00 AM, and the collection of samples was started between 8:00 AM and 10:00 AM. After initial CSF and plasma baseline samples were collected, each participant was infused with a bolus of 3 mg/kg L-[U-^13C6] leucine for 10 minutes, followed by a constant infusion (2 mg/kg/h) for the remainder of the first 9 hours. Blood samples (12 mL) were obtained hourly for the first 16 h and every other hour thereafter. CSF samples (6 mL) were obtained hourly throughout each study. Aliquots of plasma and CSF were frozen at −80° C. immediately in 1 mL polypropylene tubes after being collected for subsequent determination of plasma leucine and CSF Aβ isoform peptide enrichment. The sample collection for one subject was truncated at 4 hours; this subject was excluded from the analysis.
All samples were processed and measured in a blinded fashion with data results and individual analysis completed before unblinding to participant's disease state. The procedure for sample preparation, data acquisition and processing were previously described.^34 Briefly, 1 mL of CSF from each hour of collection and media standards were thawed. Aβ was purified and processed for mass spectrometry by immunoprecipitation with a mid-domain binding antibody HJ5.1 (Aβ amino acids 13 to 28). […] The purified Aβ was then digested with Lys-N (Metalloendopeptidase) and isotopic enrichment of Aβ c-terminal isoform specific peptides (Aβ29-38, Aβ29-40, and Aβ29-42) were measured using a nano-liquid chromatography (NanoLC-2D-Ultra system (Eksigent Technologies, CA USA)) coupled to a TSQ Vantage triple quadrupole mass spectrometer (ThermoScientific, San Jose USA) that was equipped with a column-heating nanospray source (Phoenix S&T, Chester Pa. USA). Xcalibur V2.1 was used to collect and quantify the mass spectrometry data for SILK. […] Samples for 100 subjects (including the prior 24 subjects) were analyzed utilizing the more specific and sensitive method34 in this study.
The time and magnitude of the peak maximum was determined by fitting a 2nd order curve to enrichment vs. time over an 11-h interval centered at the approximate peak maximum. The compartmental model previously developed and applied to Autosomal Dominant AD participants was used to determine model-dependent parameters of Aβ turnover kinetics (FIG. 18).^14 Modeling was performed using the Population Kinetics (PopKinetics, version 1.0.1) companion application to the SAAM II modeling program (version 1.2.1, SAAM Institute, University of Washington, Seattle). PopKinetics performed an iterative two-stage approach to optimize kinetic parameters to individual participants as well as the population as a whole by including a term that represents the population mean and standard deviation for each adjustable parameter such that variability of the kinetic parameters across the population is minimized. […] The model consists of a plasma leucine pool, a subsystem for production of Aβ through APP and C99, turnover of Aβ, and transport of Aβ to CSF.

| Substance | FTR faster | FTR, Mean(95% confidence limits) (CDR = 0 Amyloid+) | FTR, Mean(95% confidence limits) (CDR = 0 Amyloid−) | FTR, Mean(95% confidence limits) (CDR > 0 Amyloid+) | FTR, Mean(95% confidence limits) (CDR > 0 Amyloid−) | mean FTR (not significantly different by univariate analysis of amyloid status) | correlation between annualized change in fibrillar amyloid by PET PIB and FTR Aβ42 (R) (Amyloid positive and Amyloid negative participants) | exchange rate constant (amyloid negative participants) | FTR (fractional turnover rate) (amyloid negative participants) | exchange rate constant (amyloid positive participants) | FTR (fractional turnover rate) (amyloid positive participants) | FTR (clinically normal amyloid negative group) | FTR (clinically normal amyloid positive group) | deposition rate constant (into amyloid plaques) (difference of FTR, clinically normal amyloid positive minus negative) | increase in exchange of newly synthesized soluble Aβ42 (in amyloidosis) | kex42 (Aβ42 exchange rate), Mean(95% confidence limits) (Amyloid+) | FTR, Mean(95% confidence limits) (Amyloid+ participants, CSF SILK) | kex42 (Aβ42 exchange rate), Mean(95% confidence limits) (Amyloid−) | FTR, Mean(95% confidence limits) (Amyloid− participants, CSF SILK) |
| --- | --- | --- | --- | --- | --- | --- | --- | --- | --- | --- | --- | --- | --- | --- | --- | --- | --- | --- | --- |
| Aβ40: naturally occurring amyloid-beta isoform Aβx-40, where x is any N-terminal cleavage site; endogenous, measured as biomarker | 17% | CDR = 0 Amyloid+ 0.096(0.083-0.109) | CDR = 0 Amyloid− 0.082(0.068-0.096) | CDR > 0 Amyloid+ 0.074(0.067-0.081) | CDR > 0 Amyloid− 0.094(0.083-0.106) | 0.082±0.022 |  |  |  |  |  |  |  |  |  |  |  |  |  |
| Aβ42: naturally occurring amyloid-beta isoform Aβx-42, where x is any N-terminal cleavage site; endogenous, measured as biomarker | 57% |  |  |  |  |  | 0.56 | 0.006±0.032 pools/h | 0.094±0.031 pools/h | 0.049±0.054 pools/h | 0.112±0.035 pools/h | 0.091 pool/h | 0.143 pool/h | 0.052 pool/h | ten-fold increase | Amyloid+ 0.059(0.042-0.076) | Amyloid+ 0.124 (0.112-0.135) | Amyloid− 0.006(−0.016-0.029) | Amyloid− 0.101 (0.086-0.115) |
